Tests used:
MBP-BccP (S. flexneri) = MBP-BccP (S. flexneri) (UniProt P0ABE1)
[1] = target: 6xHis-BioID R118G (Escherichia coli K-12) (UniProt P06709); test: EMSA; settings: 50 mM Tris-HCl pH 8.0, 1 mM EDTA, 50 mM NaCl, 1 mM ATP, 1 mM MgCl2, 1 uM biotin, 10% glycerol; 30 min room temperature; 5% PAGE in 0.5x TAE at 4 C
[2] = target: 6xHis-BirA (Escherichia coli K-12) (UniProt P06709); test: EMSA; settings: 50 mM Tris-HCl pH 8.0, 1 mM EDTA, 50 mM NaCl, 1 mM ATP, 1 mM MgCl2, 1 uM biotin, 10% glycerol; 30 min room temperature; 5% PAGE in 0.5x TAE at 4 C
[3] = tested on: 6xHis-TurboID (Escherichia coli K-12); test: EMSA; settings: 50 mM Tris-HCl pH 8.0, 1 mM EDTA, 50 mM NaCl, 1 mM ATP, 1 mM MgCl2, 1 uM biotin, 10% glycerol; 30 min room temperature; 5% PAGE in 0.5x TAE at 4 C
[4] = tested on: 6xHis-BirA (Escherichia coli K-12); test: EMSA; settings: 50 mM Tris-HCl pH 8.0, 1 mM EDTA, 50 mM NaCl, 1 mM ATP, 1 mM MgCl2, 1 uM biotin, 10% glycerol; 30 min room temperature; 5% PAGE in 0.5x TAE at 4 C
[5] = tested on: 6xHis-BioID (Escherichia coli K-12); test: EMSA; settings: 50 mM Tris-HCl pH 8.0, 1 mM EDTA, 50 mM NaCl, 1 mM ATP, 1 mM MgCl2, 1 uM biotin, 10% glycerol; 30 min room temperature; 5% PAGE in 0.5x TAE at 4 C

6×His-BioID (from UniProt P06709 1-321) (enzyme)
midpoint (t^50) of the in vitro biotinylation of MBP-BccP; 20 nM biotin ligase, 2 µM BccP, 37°C, streptavidin-HRP blot (MBP-BccP (S. flexneri)): 3.4 min

6×His-TurboID (from UniProt P06709 1-321) (enzyme)
midpoint (t^50) of the in vitro biotinylation of MBP-BccP; 20 nM biotin ligase, 2 µM BccP, 37°C, streptavidin-HRP blot (MBP-BccP (S. flexneri)): 14.6 min

GCCATGGGGCTTCTCCAAAACGTGTTTTTTGTTGTTAATTCGGTGTAGGCTTGTAAACCTAAATCTTTTCAATTTGGTTTACAAGTCGATTATGACAACGGACGATCTTGCC (double strand) [biotin operator probe (112 bp)]
binding signal (% probe shifted at 50 nM protein) [1]: 41 | binding signal (% probe shifted at 50 nM protein) [2]: 93

biotin operator probe (112 bp)
binding signal (% probe shifted at 50 nM protein) [3]: 0.8 | binding signal (% probe shifted at 50 nM protein) [4]: 93 | binding signal (% probe shifted at 50 nM protein) [5]: 41
